Experimental data reported in US20200165324A1.

Legend:
BG505 G471A [1] = molecular target: BG505 G471A
BG505 K121A [2] = molecular target: BG505 K121A
BG505 K282A [3] = molecular target: BG505 K282A
BG505 L369A [4] = molecular target: BG505 L369A
BG505 N279A [5] = molecular target: BG505 N279A
BG505 N332T [6] = molecular target: BG505 N332T
BG505 N363A [7] = molecular target: BG505 N363A
BG505 R476A [8] = molecular target: BG505 R476A
BG505 T372A [9] = molecular target: BG505 T372A
BG505 T373A [10] = molecular target: BG505 T373A
[11] = molecular target: JR-CSF Env on JR-CSF pseudovirus
JR-CSF N276A [12] = molecular target: JR-CSF N276A
JR-CSF N283A [13] = molecular target: JR-CSF N283A
JR-CSF N362A [14] = molecular target: JR-CSF N362A
JR-CSF R476A [15] = molecular target: JR-CSF R476A
JR-CSF S199A [16] = molecular target: JR-CSF S199A
JR-CSF S365A [17] = molecular target: JR-CSF S365A
JR-CSF T198A [18] = molecular target: JR-CSF T198A
BG505 G366A = experiment: ELISA, gp120 captured from lysed virions
BG505 G367A = experiment: ELISA, gp120 captured from lysed virions
BG505 G471A [19] = experiment: ELISA, gp120 captured from lysed virions
BG505 G472A = experiment: ELISA, gp120 captured from lysed virions
BG505 K121A [20] = experiment: ELISA, gp120 captured from lysed virions
BG505 K282A [21] = experiment: ELISA, gp120 captured from lysed virions
BG505 L179A = experiment: ELISA, gp120 captured from lysed virions
BG505 N197A = experiment: ELISA, gp120 captured from lysed virions
BG505 N283A = experiment: ELISA, gp120 captured from lysed virions
BG505 N363A [22] = experiment: ELISA, gp120 captured from lysed virions
BG505 R476A [23] = experiment: ELISA, gp120 captured from lysed virions
BG505 V371A = experiment: ELISA, gp120 captured from lysed virions
JR-CSF D368A = experiment: ELISA, gp120 captured from lysed virions
JR-CSF E370A = experiment: ELISA, gp120 captured from lysed virions
JR-CSF G366A = experiment: ELISA, gp120 captured from lysed virions
JR-CSF G471A = experiment: ELISA, gp120 captured from lysed virions
JR-CSF G472A = experiment: ELISA, gp120 captured from lysed virions
JR-CSF G473A = experiment: ELISA, gp120 captured from lysed virions
JR-CSF K207A = experiment: ELISA, gp120 captured from lysed virions
JR-CSF N262A = experiment: ELISA, gp120 captured from lysed virions
JR-CSF N276A [24] = experiment: ELISA, gp120 captured from lysed virions
JR-CSF N279A = experiment: ELISA, gp120 captured from lysed virions
JR-CSF N283A [25] = experiment: ELISA, gp120 captured from lysed virions
JR-CSF N362A [26] = experiment: ELISA, gp120 captured from lysed virions
JR-CSF R476A [27] = experiment: ELISA, gp120 captured from lysed virions
JR-CSF S199A [28] = experiment: ELISA, gp120 captured from lysed virions
JR-CSF S365A [29] = experiment: ELISA, gp120 captured from lysed virions
JR-CSF T198A [30] = experiment: ELISA, gp120 captured from lysed virions
JR-CSF T372A = experiment: ELISA, gp120 captured from lysed virions
JR-CSF T373A = experiment: ELISA, gp120 captured from lysed virions
[31] = molecular target: JR-CSF gp120 captured from lysed virions (HIV isolate JR-CSF) (UniProt P20871); experiment: ELISA, gp120 captured from lysed virions
BG505 E370A = experiment: ELISA, gp120 captured from lysed virions
BG505 L369A [32] = experiment: ELISA, gp120 captured from lysed virions
BG505 N279A [33] = experiment: ELISA, gp120 captured from lysed virions
BG505 N332T [34] = experiment: ELISA, gp120 captured from lysed virions
BG505 S364A = experiment: ELISA, gp120 captured from lysed virions
BG505 S365A = experiment: ELISA, gp120 captured from lysed virions
BG505 T372A [35] = experiment: ELISA, gp120 captured from lysed virions
BG505 T373A [36] = experiment: ELISA, gp120 captured from lysed virions
[37] = molecular target: BG505 gp120 captured from lysed virions (HIV isolate BG505); experiment: ELISA, gp120 captured from lysed virions
JR-CSF V371A = experiment: ELISA, gp120 captured from lysed virions

## PGT121 (antibody)
BG505 D474A
  IC50, pseudovirus neutralization: 0.023 µg/mL
BG505 G471A [1]
  IC50, pseudovirus neutralization: 0.014 µg/mL
BG505 K121A [2]
  IC50, pseudovirus neutralization: 0.026 µg/mL
BG505 K282A [3]
  IC50, pseudovirus neutralization: 9 ng/mL
BG505 L369A [4]
  IC50, pseudovirus neutralization: 0.021 µg/mL
BG505 N279A [5]
  IC50, pseudovirus neutralization: 0.02 µg/mL
BG505 N332T [6]
  IC50, pseudovirus neutralization: 0.019 µg/mL
BG505 N363A [7]
  IC50, pseudovirus neutralization: 0.026 µg/mL
BG505 R476A [8]
  IC50, pseudovirus neutralization: 0.02 µg/mL
BG505 T372A [9]
  IC50, pseudovirus neutralization: 0.019 µg/mL
BG505 T373A [10]
  IC50, pseudovirus neutralization: 0.017 µg/mL
[11]
  IC50, pseudovirus neutralization: 0.028 µg/mL
JR-CSF N276A [12]
  IC50, pseudovirus neutralization: 0.033 µg/mL
JR-CSF N283A [13]
  IC50, pseudovirus neutralization: 0.017 µg/mL
JR-CSF N362A [14]
  IC50, pseudovirus neutralization: 0.026 µg/mL
JR-CSF R476A [15]
  IC50, pseudovirus neutralization: 0.014 µg/mL
JR-CSF S199A [16]
  IC50, pseudovirus neutralization: 0.03 µg/mL
JR-CSF S365A [17]
  IC50, pseudovirus neutralization: 0.026 µg/mL
JR-CSF T198A [18]
  IC50, pseudovirus neutralization: 0.046 µg/mL
BG505 G366A
  EC50: 0.9 µg/mL
BG505 G367A
  EC50: 4 µg/mL
BG505 G471A [19]
  EC50: 2.5 µg/mL
BG505 G472A
  EC50: 1.4 µg/mL
BG505 K121A [20]
  EC50: 1 µg/mL
BG505 K282A [21]
  EC50: 1.3 µg/mL
BG505 L179A
  EC50: 0.5 µg/mL
BG505 N197A
  EC50: 1.3 µg/mL
BG505 N283A
  EC50: 3.4 µg/mL
BG505 N363A [22]
  EC50: 2.3 µg/mL
BG505 R476A [23]
  EC50: 1 µg/mL
BG505 V371A
  EC50: 1.4 µg/mL
JR-CSF D368A
  EC50: 0.942 µg/mL
JR-CSF E370A
  EC50: 0.933 µg/mL
JR-CSF G366A
  EC50: 0.489 µg/mL
JR-CSF G471A
  EC50: 0.619 µg/mL
JR-CSF G472A
  EC50: 0.664 µg/mL
JR-CSF G473A
  EC50: 0.46 µg/mL
JR-CSF K207A
  EC50: 0.437 µg/mL
JR-CSF N262A
  EC50: 0.947 µg/mL
JR-CSF N276A [24]
  EC50: 1.25 µg/mL
JR-CSF N279A
  EC50: 0.535 µg/mL
JR-CSF N283A [25]
  EC50: 0.615 µg/mL
JR-CSF N362A [26]
  EC50: 0.747 µg/mL
JR-CSF R476A [27]
  EC50: 0.984 µg/mL
JR-CSF S199A [28]
  EC50: 1.91 µg/mL
JR-CSF S365A [29]
  EC50: 0.935 µg/mL
JR-CSF T198A [30]
  EC50: 0.604 µg/mL
JR-CSF T372A
  EC50: 0.698 µg/mL
JR-CSF T373A
  EC50: 0.643 µg/mL
[31]
  EC50: 1.33 µg/mL

## VRC01 (antibody)
BG505 E370A
  EC50: 1.1 µg/mL
BG505 G366A
  EC50: 0.7 µg/mL
BG505 G367A
  EC50: 9.4 µg/mL
BG505 G472A
  EC50: 0.9 µg/mL
BG505 K121A [20]
  EC50: 0.7 µg/mL
BG505 K282A [21]
  EC50: 0.6 µg/mL
BG505 L179A
  EC50: 0.6 µg/mL
BG505 L369A [32]
  EC50: 1.6 µg/mL
BG505 N197A
  EC50: 0.4 µg/mL
BG505 N279A [33]
  EC50: 25.4 µg/mL
BG505 N332T [34]
  EC50: 0.2 µg/mL
BG505 N363A [22]
  EC50: 0.9 µg/mL
BG505 R476A [23]
  EC50: 0.5 µg/mL
BG505 S364A
  EC50: 0.4 µg/mL
BG505 S365A
  EC50: 1.4 µg/mL
BG505 T372A [35]
  EC50: 0.4 µg/mL
BG505 T373A [36]
  EC50: 0.5 µg/mL
BG505 V371A
  EC50: 1.3 µg/mL
[37]
  EC50: 0.2 µg/mL
JR-CSF N283A [25]
  EC50: 0.348 µg/mL
JR-CSF N362A [26]
  EC50: 0.327 µg/mL
JR-CSF T373A
  EC50: 0.456 µg/mL
JR-CSF V371A
  EC50: 1.62 µg/mL
